Source: patent US20230383012A1 (Xencor, published 2023)

biological target: T1, human PDL1 (human, UniProt Q9NZQ7 19-238); assay: PDL1 binding affinity; Biacore per paragraph 695, in PDL1×CD28 bsAb
T1 construct: his-tagged in the Carterra assay; also called PDL1 antigen

Row | Kd [nM] | Binder
1 | 0.17 | XENP38514 (bispecific antibody, also called αPDL1×αCD28 bsAb XENP38514) heavy: EVQLLESGGGLVQPGGSLRLSCAASGFTFSVYDMSWVRQAPGKRLEWVSTISSGGSFTHYPDSVKGRFTISRDNSKNTLYLQMNSLRAEDTAVYYCVRRSLDWYFDVWGAGTTVTVSSASTKGPSVFPLAPSSKSTSGGTAALGCLVKDYFPEPVTVSWNSGALTSGVHTFPAVLQSSGLYSLSSVVTVPSSSLGTQTYICNVNHKPSDTKVDKKVEPKSCDKTHTCPPCPAPPVAGPSVFLFPPKPKDTLMISRTPEVTCVVVDVKHEDPEVKFNWYVDGVEVHNAKTKPREEEYNSTYRVVSVLTVLHQDWLNGKEYKCKVSNKALPAPIEKTISKAKGQPREPQVYTLPPSREEMTKNQVSLTCDVSGFYPSDIAVEWESDGQPENNYKTTPPVLDSDGSFFLYSKLTVDKSRWEQGDVFSCSVMHEALHNHYTQKSLSLSPGK scFv-Fc: not shown light: EIVLTQSPGTLSLSPGERATLSCRVSSSIQSTNLHWYQQKPGQSPRPLIYGTSVLATGVPVRFSGSGSGTDYTLTISRLEPEDFAVYYCQQWSSYPLYTFGGGTKVEIKRTVAAPSVFIFPPSDEQLKSGTASVVCLLNNFYPREAKVQWKVDNALQSGNSQESVTEQDSKDSTYSLSSTLTLSKADYEKHKVYACEVTHQGLSSPVTKSFNRGEC
2 | 0.8 | PDL1 binding domain 2G4_H1.12_L1.68 (Fab, V domains shown) VH: EVQLLESGGGLVQPGGSLRLSCAASGFTFSVYDMSWVRQAPGKRLEWVSTISSGGSFTHYPDSVKGRFTISRDNSKNTLYLQMNSLRAEDTAVYYCVRRSLDWYFDVWGAGTTVTVSS VL: EIVLTQSPGTLSLSPGERATLSCRVSSSIQSTNLHWYQQKPGQSPRPLIYGTSNLASGVPVRFSGSGSGTDYTLTISRLEPEDFAVYYCQQWSSYPLYTFGGGTKVEIK
3 | 0.42 | PDL1 binding domain 2G4_H1.12_L1.14 (Fab, V domains shown, also called as in XENP40409 and XENP40706) VH: EVQLLESGGGLVQPGGSLRLSCAASGFTFSVYDMSWVRQAPGKRLEWVSTISSGGSFTHYPDSVKGRFTISRDNSKNTLYLQMNSLRAEDTAVYYCVRRSLDWYFDVWGAGTTVTVSS VL: EIVLTQSPGTLSLSPGERATLSCRVSSSIQSSNLHWYQQKPGQSPRPLIYGTSNLASGVPVRFSGSGSGTDYTLTISRLEPEDFAVYYCQQWSSYPLYTFGGGTKVEIK
4 | 0.86 | PDL1 binding domain 2G4_H1.12_L1.66 (Fab, V domains shown) VH: EVQLLESGGGLVQPGGSLRLSCAASGFTFSVYDMSWVRQAPGKRLEWVSTISSGGSFTHYPDSVKGRFTISRDNSKNTLYLQMNSLRAEDTAVYYCVRRSLDWYFDVWGAGTTVTVSS VL: EIVLTQSPGTLSLSPGERATLSCRVSSSIQSTNLHWYQQKPGQSPRPLIYGTSNLATGVPVRFSGSGSGTDYTLTISRLEPEDFAVYYCQQWSSYPLYTFGGGTKVEIK

biological target: T2, human CD28 antigen (human, UniProt P10747 19-152); assay: CD28 binding affinity; Octet per paragraph 712, scFv in 1+1 Fab-scFv-Fc PDL1×CD28 bsAb
T2 construct: also called his-tagged CD28 antigen

Row | Binder | Kd [nM]
5 | XENP36233 (bispecific antibody) chain 1: EVQLLESGGGLVQPGGSLRLSCAASGFTFSSYDMSWVRQAPGKRLEWVSTISSGGSFTHYPDSVKGRFTISRDNSKNTLYLQMNSLRAEDTAVYYCVRRSGDWYFDVWGAGTTVTVSSASTKGPSVFPLAPSSKSTSGGTAALGCLVKDYFPEPVTVSWNSGALTSGVHTFPAVLQSSGLYSLSSVVTVPSSSLGTQTYICNVNHKPSDTKVDKKVEPKSCDKTHTCPPCPAPPVAGPSVFLFPPKPKDTLMISRTPEVTCVVVDVKHEDPEVKFNWYVDGVEVHNAKTKPREEEYNSTYRVVSVLTVLHQDWLNGKEYKCKVSNKALPAPIEKTISKAKGQPREPQVYTLPPSREEMTKNQVSLTCDVSGFYPSDIAVEWESDGQPENNYKTTPPVLDSDGSFFLYSKLTVDKSRWEQGDVFSCSVMHEALHNHYTQKSLSLSPGK chain 2: not shown chain 3: EIVLTQSPGTLSLSPGERATLSCRVSSSISSSNLHWYQQKPGQSPRPLIYGTSNLASGVPVRFSGSGSGTDYTLTISRLEPEDFAVYYCQQWSSYPLYTFGGGTKVEIKRTVAAPSVFIFPPSDEQLKSGTASVVCLLNNFYPREAKVQWKVDNALQSGNSQESVTEQDSKDSTYSLSSTLTLSKADYEKHKVYACEVTHQGLSSPVTKSFNRGEC | 240
6 | XENP37261 (bispecific antibody) chain 1: EVQLLESGGGLVQPGGSLRLSCAASGFTFSSYDMSWVRQAPGKRLEWVSTISSGGSFTHYPDSVKGRFTISRDNSKNTLYLQMNSLRAEDTAVYYCVRRSGDWYFDVWGAGTTVTVSSASTKGPSVFPLAPSSKSTSGGTAALGCLVKDYFPEPVTVSWNSGALTSGVHTFPAVLQSSGLYSLSSVVTVPSSSLGTQTYICNVNHKPSDTKVDKKVEPKSCDKTHTCPPCPAPPVAGPSVFLFPPKPKDTLMISRTPEVTCVVVDVKHEDPEVKFNWYVDGVEVHNAKTKPREEEYNSTYRVVSVLTVLHQDWLNGKEYKCKVSNKALPAPIEKTISKAKGQPREPQVYTLPPSREEMTKNQVSLTCDVSGFYPSDIAVEWESDGQPENNYKTTPPVLDSDGSFFLYSKLTVDKSRWEQGDVFSCSVMHEALHNHYTQKSLSLSPGK chain 2: not shown chain 3: EIVLTQSPGTLSLSPGERATLSCRVSSSISSSNLHWYQQKPGQSPRPLIYGTSNLASGVPVRFSGSGSGTDYTLTISRLEPEDFAVYYCQQWSSYPLYTFGGGTKVEIKRTVAAPSVFIFPPSDEQLKSGTASVVCLLNNFYPREAKVQWKVDNALQSGNSQESVTEQDSKDSTYSLSSTLTLSKADYEKHKVYACEVTHQGLSSPVTKSFNRGEC | 36
7 | XENP37412 (bispecific antibody) chain 1: EVQLLESGGGLVQPGGSLRLSCAASGFTFSSYDMSWVRQAPGKRLEWVSTISSGGSFTHYPDSVKGRFTISRDNSKNTLYLQMNSLRAEDTAVYYCVRRSGDWYFDVWGAGTTVTVSSASTKGPSVFPLAPSSKSTSGGTAALGCLVKDYFPEPVTVSWNSGALTSGVHTFPAVLQSSGLYSLSSVVTVPSSSLGTQTYICNVNHKPSDTKVDKKVEPKSCDKTHTCPPCPAPPVAGPSVFLFPPKPKDTLMISRTPEVTCVVVDVKHEDPEVKFNWYVDGVEVHNAKTKPREEEYNSTYRVVSVLTVLHQDWLNGKEYKCKVSNKALPAPIEKTISKAKGQPREPQVYTLPPSREEMTKNQVSLTCDVSGFYPSDIAVEWESDGQPENNYKTTPPVLDSDGSFFLYSKLTVDKSRWEQGDVFSCSVMHEALHNHYTQKSLSLSPGK chain 2: not shown chain 3: EIVLTQSPGTLSLSPGERATLSCRVSSSISSSNLHWYQQKPGQSPRPLIYGTSNLASGVPVRFSGSGSGTDYTLTISRLEPEDFAVYYCQQWSSYPLYTFGGGTKVEIKRTVAAPSVFIFPPSDEQLKSGTASVVCLLNNFYPREAKVQWKVDNALQSGNSQESVTEQDSKDSTYSLSSTLTLSKADYEKHKVYACEVTHQGLSSPVTKSFNRGEC | 286

The remaining lines, values ahead:

Row | Kd [nM] | Binder
8 | 37 | XENP37561 (bispecific antibody) chain 1: EVQLLESGGGLVQPGGSLRLSCAASGFTFSSYDMSWVRQAPGKRLEWVSTISSGGSFTHYPDSVKGRFTISRDNSKNTLYLQMNSLRAEDTAVYYCVRRSGDWYFDVWGAGTTVTVSSASTKGPSVFPLAPSSKSTSGGTAALGCLVKDYFPEPVTVSWNSGALTSGVHTFPAVLQSSGLYSLSSVVTVPSSSLGTQTYICNVNHKPSDTKVDKKVEPKSCDKTHTCPPCPAPPVAGPSVFLFPPKPKDTLMISRTPEVTCVVVDVKHEDPEVKFNWYVDGVEVHNAKTKPREEEYNSTYRVVSVLTVLHQDWLNGKEYKCKVSNKALPAPIEKTISKAKGQPREPQVYTLPPSREEMTKNQVSLTCDVSGFYPSDIAVEWESDGQPENNYKTTPPVLDSDGSFFLYSKLTVDKSRWEQGDVFSCSVMHEALHNHYTQKSLSLSPGK chain 2: not shown chain 3: EIVLTQSPGTLSLSPGERATLSCRVSSSISSSNLHWYQQKPGQSPRPLIYGTSNLASGVPVRFSGSGSGTDYTLTISRLEPEDFAVYYCQQWSSYPLYTFGGGTKVEIKRTVAAPSVFIFPPSDEQLKSGTASVVCLLNNFYPREAKVQWKVDNALQSGNSQESVTEQDSKDSTYSLSSTLTLSKADYEKHKVYACEVTHQGLSSPVTKSFNRGEC
9 | 180 | XENP37559 (bispecific antibody) chain 1: EVQLLESGGGLVQPGGSLRLSCAASGFTFSSYDMSWVRQAPGKRLEWVSTISSGGSFTHYPDSVKGRFTISRDNSKNTLYLQMNSLRAEDTAVYYCVRRSGDWYFDVWGAGTTVTVSSASTKGPSVFPLAPSSKSTSGGTAALGCLVKDYFPEPVTVSWNSGALTSGVHTFPAVLQSSGLYSLSSVVTVPSSSLGTQTYICNVNHKPSDTKVDKKVEPKSCDKTHTCPPCPAPPVAGPSVFLFPPKPKDTLMISRTPEVTCVVVDVKHEDPEVKFNWYVDGVEVHNAKTKPREEEYNSTYRVVSVLTVLHQDWLNGKEYKCKVSNKALPAPIEKTISKAKGQPREPQVYTLPPSREEMTKNQVSLTCDVSGFYPSDIAVEWESDGQPENNYKTTPPVLDSDGSFFLYSKLTVDKSRWEQGDVFSCSVMHEALHNHYTQKSLSLSPGK chain 2: not shown chain 3: EIVLTQSPGTLSLSPGERATLSCRVSSSISSSNLHWYQQKPGQSPRPLIYGTSNLASGVPVRFSGSGSGTDYTLTISRLEPEDFAVYYCQQWSSYPLYTFGGGTKVEIKRTVAAPSVFIFPPSDEQLKSGTASVVCLLNNFYPREAKVQWKVDNALQSGNSQESVTEQDSKDSTYSLSSTLTLSKADYEKHKVYACEVTHQGLSSPVTKSFNRGEC
10 | 96 | XENP37560 (bispecific antibody) chain 1: EVQLLESGGGLVQPGGSLRLSCAASGFTFSSYDMSWVRQAPGKRLEWVSTISSGGSFTHYPDSVKGRFTISRDNSKNTLYLQMNSLRAEDTAVYYCVRRSGDWYFDVWGAGTTVTVSSASTKGPSVFPLAPSSKSTSGGTAALGCLVKDYFPEPVTVSWNSGALTSGVHTFPAVLQSSGLYSLSSVVTVPSSSLGTQTYICNVNHKPSDTKVDKKVEPKSCDKTHTCPPCPAPPVAGPSVFLFPPKPKDTLMISRTPEVTCVVVDVKHEDPEVKFNWYVDGVEVHNAKTKPREEEYNSTYRVVSVLTVLHQDWLNGKEYKCKVSNKALPAPIEKTISKAKGQPREPQVYTLPPSREEMTKNQVSLTCDVSGFYPSDIAVEWESDGQPENNYKTTPPVLDSDGSFFLYSKLTVDKSRWEQGDVFSCSVMHEALHNHYTQKSLSLSPGK chain 2: not shown chain 3: EIVLTQSPGTLSLSPGERATLSCRVSSSISSSNLHWYQQKPGQSPRPLIYGTSNLASGVPVRFSGSGSGTDYTLTISRLEPEDFAVYYCQQWSSYPLYTFGGGTKVEIKRTVAAPSVFIFPPSDEQLKSGTASVVCLLNNFYPREAKVQWKVDNALQSGNSQESVTEQDSKDSTYSLSSTLTLSKADYEKHKVYACEVTHQGLSSPVTKSFNRGEC
